In patent publication US20220268706A1 one finds EC50, response to 1 µM FLAG peptide and decrease in the BRET ratio data, which are given here for one substance.

As usually defined, the EC50 is the concentration needed to bring the measured effect to its halfway point.

In experiment [1] the target is antibody-12/36-RLuc8 conjugate (Renilla reniformis). The experiment in a line: BRET competition, Fluorostar; 50 nM mAb-12/36-RLuc8, 200 nM FLAG-GFP^2 as competitor.
Experiment [2] deals with antibody-CLICK-RLuc8 (anti-FLAG mAb-dPEG4-DBCO:RLuc8:dPEG8azide conjugate) (Renilla reniformis). The experiment in a line: BRET competition; 50 nM conjugate, 200 nM FLAG-GFP^2 as competitor, 1 µM FLAG peptide. Background: Bioluminescence resonance energy transfer reports proximity on the nanometre scale.
For experiment [3] the target is unchanged. The experiment in a line: BRET competition; 5 nM antibody-CLICK-RLuc8, 150 nM FLAG-GFP^2 as competitor, 100 nM FLAG peptide; same for every order of addition.

Sequence of antibody-CLICK-RLuc8 (anti-FLAG mAb-dPEG4-DBCO:RLuc8:dPEG8azide conjugate) (Renilla reniformis) (P27652 other isoform, or with tags, fused parts or gaps): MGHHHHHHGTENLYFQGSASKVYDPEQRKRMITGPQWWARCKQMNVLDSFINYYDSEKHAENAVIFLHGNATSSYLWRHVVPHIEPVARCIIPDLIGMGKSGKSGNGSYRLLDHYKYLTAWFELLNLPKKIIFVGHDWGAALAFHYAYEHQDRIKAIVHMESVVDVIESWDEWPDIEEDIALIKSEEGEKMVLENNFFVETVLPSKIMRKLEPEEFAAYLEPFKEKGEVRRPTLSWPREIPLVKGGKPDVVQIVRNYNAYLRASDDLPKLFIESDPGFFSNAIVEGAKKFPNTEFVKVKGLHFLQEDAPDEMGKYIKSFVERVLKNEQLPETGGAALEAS
Sequence of antibody-12/36-RLuc8 conjugate (Renilla reniformis) (P27652 other isoform, or with tags, fused parts or gaps): as above

For FLAG peptide (DYKDDDDK), the EC50 in experiment [1] stood at 0.274 µM. This substance also had a response to 1 µM FLAG peptide in experiment [2] of 45%. Moreover, the decrease in the BRET ratio in experiment [3] was determined as 22%.
